Patent publication JP2010254663A
Like-named read-outs stand apart in the source and are kept apart here.

Experiments:
[1] = target: HAMA血清タイプ1(Roche製、品番:1767275); experiment: forward sandwich ELISA with anti-hCEA antibodies and HAMA serum type 1, inhibitor at 1 ug/ml
[2] = target: HAMA血清タイプ1(Roche製、品番:1767275); experiment: as above; remark: listed apart in the source

| Substance | HAMA抑制率 [1] [%] | HAMA抑制率 [2] [%] |
| --- | --- | --- |
| Heterophilic Blocking Reagent1(SCANTIBODIES LABORATORY，INC.製、品番:3KC534−075) | 68 | – |
| マウスIgG(CHEMICON製、品番:PP54) (antibody) | 61 | 39 |
| MAK33−IgG1(Roche製、品番:1200941) (antibody) | 69 | 51 |
